{"source": "patent US20110262944A1", "about": "(UNIVERSITY OF TSUKUBA, published 2011)", "binders": {"B1": {"name": "PB1-C (C-terminal residues 678-757 of the RNA polymerase PB1 subunit, influenza A/Puerto Rico/8/34 H1N1) (other)", "chain": "SQRGVLEDEQMYQRCCNLFEKFFPSSSYRRPVGISSMVEAMVSRARIDARIDFESGRIKKEEFTEIMKICSTIEELRRQK"}}, "assay_in_all_cases": "Ni-NTA co-precipitation after co-expression in E. coli", "key": {"[1]": {"biological_target": "T1, PB2-N (residues 1-86) carrying a hexa-histidine tag at the N-terminal end (influenza A/Puerto Rico/8/34 H1N1, UniProt A4GCJ6 1-86)", "T1 sequence": "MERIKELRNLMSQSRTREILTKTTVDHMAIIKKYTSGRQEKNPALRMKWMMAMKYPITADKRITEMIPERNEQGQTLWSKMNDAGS"}, "[2]": {"biological_target": "PB2 residues 252-490 with N-terminal hexa-histidine tag and TEV cleavage site (influenza A/Puerto Rico/8/34 H1N1, UniProt B4URE6 252-490)"}, "[3]": {"biological_target": "T2, PB2 residues 37-174 with N-terminal hexa-histidine tag and TEV cleavage site (influenza A/Puerto Rico/8/34 H1N1, UniProt A4GCJ6 37-174)", "T2 sequence": "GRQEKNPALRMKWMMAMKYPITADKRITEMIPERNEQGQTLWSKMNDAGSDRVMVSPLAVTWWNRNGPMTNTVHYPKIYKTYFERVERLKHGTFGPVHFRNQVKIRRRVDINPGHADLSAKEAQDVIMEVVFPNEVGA"}}}
{"binder": "B1", "values": [{"measurement": "binding result", "setting": "[1]", "result": "binds"}, {"measurement": "binding result", "setting": "[2]", "result": "no binding"}, {"measurement": "binding result", "setting": "[3]", "result": "no binding"}]}
